This is an account of results in PMC3766443 (Nature structural & molecular biology, 2013).

This assay addresses Arp2 subunit of Bos taurus Arp2/3 complex (Bos taurus, UniProt A7MB62 1-394). Kind of assay: crystal structure.

B1: Mus musculus GMFγ (glial maturation factor gamma), GST tag removed (natural protein)
chain: MSDSLVVCEVDPELKETLRKFRFRKETNNAAIIMKVDKDRQMVVLEDELQNISPEELKLELPERQPRFVVYSYKYVHDDGRVSYPLCFIFSSPVGCKPEQQMMYAGSKNRLVQTAELTKVFEIRTTDDLTETWLKEKLAFFR
Turning to B1, the binding result was “binds”.
